These results are taken from publication PMC6141617 (2018).

Where only a bound is given, the exact number is not on record here.

The chains are these.
B1: GFP-ExoS^233–419 (domain or fragment)
chain: ADKALADGLVKRFGADAEKYLGRQPGGIHSDAEVMALGLYTGIHYADLNRALRQGQELDAGQKLIDQGMSAAFEKSGQAEQVVKTFRGTRGGDAFNAVEEGKVGHDDGYLSTSLNPGVARSFGQGTISTVFGRSGIDVSGISNYKNEKEILYNKETDMRVLLSASDEQGVTRRVLEEAALGEQSGHS
B2: 14-3-3β (purified alone) (natural protein)
chain: MTMDKSELVQKAKLAEQAERYDDMAAAMKAVTEQGHELSNEERNLLSVAYKNVVGARRSSWRVISSIEQKTERNEKKQQMGKEYREKIEAELQDICNDVLELLDKYLIPNATQPESKVFYLKMKGDYFRYLSEVASGDNKQTTVSNSQQAYQEAFEISKKEMQPTHPIRLGLALNFSVFYYEILNSPEKACSLAKTAFDEAIAELDTLNEESYKDSTLIMQLLRDNLTLWTSENQGDEG

The target of assay [1] is B2. The assay can be described thus: FP.
For assay [2], the target named is GFP-ExoS^419-453. The assay can be described thus: FP.

For orientation: Kd means a measure of binding affinity in units of concentration. As for B1, the Kd in assay [1] is more than 100 nM.
On to B2, for which the dissociation constant (Kd) in assay [2] was approximately 370 nM.
